Data published in US20020168748.

Legend:
[1] = target: PKC1 tagged at its COOH-terminus with the HA epitope (PKC1^HA) (UniProt P24583)
[2] = target: 1,3-β-glucan synthase (GS) complex (UniProt P38631)
Sequence of 1,3-β-glucan synthase (GS) complex (P38631 whole entry, looked up, one chain of several): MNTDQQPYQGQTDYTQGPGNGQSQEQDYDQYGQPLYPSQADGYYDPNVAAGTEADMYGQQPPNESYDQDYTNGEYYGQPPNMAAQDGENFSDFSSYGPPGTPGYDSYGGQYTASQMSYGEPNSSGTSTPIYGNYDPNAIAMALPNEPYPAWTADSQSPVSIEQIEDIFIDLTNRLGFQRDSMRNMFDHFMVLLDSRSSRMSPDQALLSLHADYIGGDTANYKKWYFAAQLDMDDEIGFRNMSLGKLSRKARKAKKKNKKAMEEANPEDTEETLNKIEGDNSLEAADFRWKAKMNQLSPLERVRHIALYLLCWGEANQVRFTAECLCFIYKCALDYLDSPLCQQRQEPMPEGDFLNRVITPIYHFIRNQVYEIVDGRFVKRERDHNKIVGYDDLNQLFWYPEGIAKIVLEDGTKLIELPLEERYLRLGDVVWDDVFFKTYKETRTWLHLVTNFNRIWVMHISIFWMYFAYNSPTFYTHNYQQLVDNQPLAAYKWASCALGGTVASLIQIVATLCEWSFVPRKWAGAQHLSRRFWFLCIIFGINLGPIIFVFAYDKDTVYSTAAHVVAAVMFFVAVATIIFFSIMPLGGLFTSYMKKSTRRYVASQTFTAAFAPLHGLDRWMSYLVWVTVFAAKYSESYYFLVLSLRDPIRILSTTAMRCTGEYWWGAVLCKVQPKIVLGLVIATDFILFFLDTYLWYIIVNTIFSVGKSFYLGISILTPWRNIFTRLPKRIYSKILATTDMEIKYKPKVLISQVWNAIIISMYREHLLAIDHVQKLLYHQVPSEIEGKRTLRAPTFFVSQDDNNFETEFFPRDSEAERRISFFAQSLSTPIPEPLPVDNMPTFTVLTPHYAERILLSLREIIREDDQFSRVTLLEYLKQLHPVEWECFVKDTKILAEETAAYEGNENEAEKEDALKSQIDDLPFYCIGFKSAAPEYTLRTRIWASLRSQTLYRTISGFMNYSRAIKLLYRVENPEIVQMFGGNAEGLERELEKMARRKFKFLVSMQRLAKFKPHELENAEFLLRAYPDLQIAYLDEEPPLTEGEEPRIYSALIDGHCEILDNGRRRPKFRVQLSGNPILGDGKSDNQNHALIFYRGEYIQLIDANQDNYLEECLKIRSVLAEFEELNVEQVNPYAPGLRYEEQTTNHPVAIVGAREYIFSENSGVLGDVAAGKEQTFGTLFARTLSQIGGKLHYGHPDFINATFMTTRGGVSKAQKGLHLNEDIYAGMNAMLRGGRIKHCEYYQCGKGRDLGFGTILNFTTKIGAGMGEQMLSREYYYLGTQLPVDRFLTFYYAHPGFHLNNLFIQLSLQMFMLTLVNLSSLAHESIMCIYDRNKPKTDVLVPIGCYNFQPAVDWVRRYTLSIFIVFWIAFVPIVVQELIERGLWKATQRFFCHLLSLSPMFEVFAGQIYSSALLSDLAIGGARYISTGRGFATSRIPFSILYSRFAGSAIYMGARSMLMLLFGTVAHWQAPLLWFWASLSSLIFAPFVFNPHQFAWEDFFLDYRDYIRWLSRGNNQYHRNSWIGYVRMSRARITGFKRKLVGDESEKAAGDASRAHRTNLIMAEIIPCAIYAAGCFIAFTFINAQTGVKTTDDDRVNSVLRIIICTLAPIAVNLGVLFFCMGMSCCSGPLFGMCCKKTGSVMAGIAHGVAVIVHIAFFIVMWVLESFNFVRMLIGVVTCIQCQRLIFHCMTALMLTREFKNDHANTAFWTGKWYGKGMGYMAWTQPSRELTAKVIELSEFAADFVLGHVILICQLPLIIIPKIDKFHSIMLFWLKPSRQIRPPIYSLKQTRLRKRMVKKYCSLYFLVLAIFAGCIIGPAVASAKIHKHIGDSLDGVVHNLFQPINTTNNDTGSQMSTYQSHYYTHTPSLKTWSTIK

Sequence of PKC1 tagged at its COOH-terminus with the HA epitope (PKC1^HA) (P24583 whole entry): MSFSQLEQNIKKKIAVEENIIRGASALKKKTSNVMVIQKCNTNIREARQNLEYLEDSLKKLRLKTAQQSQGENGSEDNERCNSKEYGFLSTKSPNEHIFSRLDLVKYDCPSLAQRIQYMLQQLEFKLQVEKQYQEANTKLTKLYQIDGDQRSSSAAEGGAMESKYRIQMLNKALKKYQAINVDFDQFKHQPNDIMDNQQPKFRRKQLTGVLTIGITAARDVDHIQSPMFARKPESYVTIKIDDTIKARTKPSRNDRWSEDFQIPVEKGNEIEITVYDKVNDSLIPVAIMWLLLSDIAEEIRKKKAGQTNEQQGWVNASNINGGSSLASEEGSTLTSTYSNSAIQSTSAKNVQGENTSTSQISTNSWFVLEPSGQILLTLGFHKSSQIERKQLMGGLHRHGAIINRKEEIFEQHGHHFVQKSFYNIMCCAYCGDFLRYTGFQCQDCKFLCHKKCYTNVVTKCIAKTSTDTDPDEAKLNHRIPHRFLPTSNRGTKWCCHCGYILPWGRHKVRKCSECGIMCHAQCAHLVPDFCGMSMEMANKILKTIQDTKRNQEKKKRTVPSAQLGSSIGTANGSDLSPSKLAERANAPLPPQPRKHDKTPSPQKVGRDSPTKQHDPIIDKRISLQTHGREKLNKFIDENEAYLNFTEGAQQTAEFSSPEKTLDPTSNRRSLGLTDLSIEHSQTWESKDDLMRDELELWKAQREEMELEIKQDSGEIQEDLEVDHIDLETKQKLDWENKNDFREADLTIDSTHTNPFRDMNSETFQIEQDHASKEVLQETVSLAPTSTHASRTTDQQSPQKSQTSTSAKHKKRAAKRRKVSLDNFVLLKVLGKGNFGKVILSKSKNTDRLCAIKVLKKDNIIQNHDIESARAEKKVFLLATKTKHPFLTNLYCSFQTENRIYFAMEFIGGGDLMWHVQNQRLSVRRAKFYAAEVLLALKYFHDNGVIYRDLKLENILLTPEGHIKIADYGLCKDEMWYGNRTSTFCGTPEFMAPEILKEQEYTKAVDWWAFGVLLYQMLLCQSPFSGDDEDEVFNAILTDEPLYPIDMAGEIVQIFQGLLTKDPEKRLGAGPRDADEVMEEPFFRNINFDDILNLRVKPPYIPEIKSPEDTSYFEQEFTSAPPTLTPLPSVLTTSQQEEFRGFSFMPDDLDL

Substance | Phosphorylation of synthetic Bck1 peptide by PKC1^HA [1] | GS activity in the membrane fraction of the cal1-1 mutant [2]
Recombinant GST-Cdc42 | GST-Cdc42 did not confer cofactor-dependent stimulation on PKC1 | –
Recombinant mutant Rho1 (G19V), constitutively active GST-Rho1 | – | GS activity was restored by the addition of constitutively activated Rho1
